Reference: patent US20120252742A1
pEC50, pKd: −log10 of the molar value. Each block holds one substance with its values, some of them ahead of it.

Experiments:
[1] = molecular target: SIY peptide on H-2Kb (mouse); experiment: value stated in the legend of FIG. 16; method not given
[2] = molecular target: human immunodeficiency virus (HIV) Gag protein (SL9) peptide on HLA-A*02:01 (human); experiment: SL9 peptide titrated on T2 cells, stained with 100 nM multi-biotinylated scTCR (FIG. 11C); soluble, other
[3] = molecular target: SL9 (HIV-Gag)/HLA.A2 streptavidin:phycoerythrin tetramer (human immunodeficiency virus; human); experiment: cell-based or functional assay
[4] = molecular target: SIY peptide on H-2Kb (mouse); experiment: value cited from Chervin et al. 2009 (ref 18); method not given
[5] = molecular target: SIY peptide on K^b of antigen presenting cells (T2-K^b); experiment: cell-based or functional assay
[6] = molecular target: SIY peptide on H-2Kb (mouse); experiment: IL-2 release; transduced 58-/- cells, SIY peptide on T2-K^b (FIG. 17); fusion: CD28, CD3ζ, LCK
[7] = molecular target: SL9 peptide on HLA.A2 of peptide-loaded HLA.A2+ cells (T2) (human immunodeficiency virus; human); experiment: flow cytometry: T2 cells loaded with 10 uM SL9, biotinylated scTCR, streptavidin:PE
[8] = molecular target: SL9 peptide on HLA.A2 of peptide-loaded HLA.A2+ cells (T2) (human immunodeficiency virus; human); experiment: flow cytometry: T2 cells loaded with 10 uM SL9, titration of biotinylated scTCR, streptavidin:PE
[9] = molecular target: SL9 peptide on HLA.A2 of peptide-loaded HLA.A2+ cells (T2) (human immunodeficiency virus; human); experiment: flow cytometry: SL9 peptide titrated on T2 cells, 100 nM biotinylated scTCR; the reference value is from the literature

pKd [1]: 4.52
Substance: 2C (full-length αβ TCR)

lowest SL9 peptide concentration detected [2]: 10 nM
Substance: 868-Z11

T cell activation by plate-bound pepMHC tetramer, EC50 [3]: 4 nM
Substance: 868-Z11 scTCR (Vβ-linker-Vα) fused to CD28, CD3ζ, LCK, on the surface of transduced T cells

pKd [1]: 7.52
pKd [4]: 7.80
Substance: m33 (full-length αβ TCR)

IL-2 release, lowest SIY peptide concentration that activates [5]: 1 nM
Substance: m33 scTCR (Vα-linker-Vβ) fused to CD28, CD3ζ, LCK, on the surface of 58-/- T cell hybridoma

lowest activating peptide concentration [6]: 1 nM
Substance: m33 scTCR with 2C-T7 stabilizing mutations

lowest scTCR concentration at which peptide loaded cells were detected [7]: 0.1 nM
pEC50 [8]: 8.40
fold improvement in limit of detection relative to the full-length 868 TCR variant described by Varela-Rohena et al [9]: 5 fold
Substance: soluble, biotinylated 868-Z11 single-chain TCR expressed in E. coli (pET28a) and refolded
